Measured values reported in paper PMC5579359, “Sensing of viral and endogenous RNA by ZBP1/DAI induces necroptosis” (The EMBO Journal, 2017).

Molecular target: the molecule itself
Test: non-reducing SDS-PAGE and Western blot

B1: MLKL (natural protein, mouse (endogenous in NIH3T3), UniProt Q9D2Y4 1-472, looked up)
chain: MDKLGQIIKLGQLIYEQCEKMKYCRKQCQRLGNRVHGLLQPLQRLQAQGKKNLPDDITAALGRFDEVLKEANQQIEKFSKKSHIWKFVSVGNDKILFHEVNEKLRDVWEELLLLLQVYHWNTVSDVSQPASWQQEDRQDAEEDGNENMKVILMQLQISVEEINKTLKQCSLKPTQEIPQDLQIKEIPKEHLGPPWTKLKTSKMSTIYRGEYHRSPVTIKVFNNPQAESVGIVRFTFNDEIKTMKKFDSPNILRIFGICIDQTVKPPEFSIVMEYCELGTLRELLDREKDLTMSVRSLLVLRAARGLYRLHHSETLHRNISSSSFLVAGGYQVKLAGFELSKTQNSISRTAKSTKAERSSSTIYVSPERLKNPFCLYDIKAEIYSFGIVLWEIATGKIPFEGCDSKKIRELVAEDKKQEPVGQDCPELLREIINECRAHEPSQRPSVDGRSLSGRERILERLSAVEESTDKKV
notes: also called pseudokinase MLKL; source: endogenous, NIH3T3 cell and primary MEF lysates
Question: Which “stoichiometry N” value does the source give for B1 here?
Answer: 3
